These results are taken from paper PMC5839780 (The Journal of Cell Biology, 2018).

Experiment [1] addresses T1, HMmm1s–Mdm12 complex (K. lactis) (Kluyveromyces lactis, UniProt Q6CJU9+Q6CUC3).
T1 sequence (Q6CJU9 179-434): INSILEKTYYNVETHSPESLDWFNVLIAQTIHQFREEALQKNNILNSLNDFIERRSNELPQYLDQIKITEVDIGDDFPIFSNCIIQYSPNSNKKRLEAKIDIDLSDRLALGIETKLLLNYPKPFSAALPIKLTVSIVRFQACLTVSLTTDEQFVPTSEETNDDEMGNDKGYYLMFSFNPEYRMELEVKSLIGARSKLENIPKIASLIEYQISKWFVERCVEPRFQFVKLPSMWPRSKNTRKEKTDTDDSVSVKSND
T1 sequence (Q6CUC3 1-239): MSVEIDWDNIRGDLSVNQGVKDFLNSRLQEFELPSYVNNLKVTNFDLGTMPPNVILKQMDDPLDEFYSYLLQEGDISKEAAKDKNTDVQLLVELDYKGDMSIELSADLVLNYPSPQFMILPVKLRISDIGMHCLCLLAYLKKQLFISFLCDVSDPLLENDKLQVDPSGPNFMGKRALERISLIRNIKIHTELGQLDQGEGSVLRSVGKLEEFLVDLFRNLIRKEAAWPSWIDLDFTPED
The experiment can be described thus: NBD dequenching lipid transfer between liposomes. The experiment is classed as biochemical. To be noted: 12.5 µM donor and 50 µM acceptor liposomes; pH 7.5; labelled compound.

The target in experiment [2] is T2, N-terminally His6-tagged K. lactis Mmm1s (179–434) L274S (Kluyveromyces lactis, UniProt Q6CJU9 179-434, L274S).
T2 sequence (looked up): T1 sequence (Q6CJU9 179-434) with L96S
The experiment can be described thus: co-purification of a coexpressed complex.

The target in experiment [3] is T3, N-terminally His6-tagged K. lactis Mmm1s (179–434) I369S (Kluyveromyces lactis, UniProt Q6CJU9 179-434, I369S).
T3 sequence (looked up): T1 sequence (Q6CJU9 179-434) with I191S
Nature of the experiment: co-purification of a coexpressed complex.

Experiment [4] deals with T4, N-terminally His6-tagged K. lactis Mmm1s (179–434) V190S (Kluyveromyces lactis, UniProt Q6CJU9 179-434, V190S).
T4 sequence (looked up): T1 sequence (Q6CJU9 179-434) with V12S
The experiment can be described thus: co-purification of a coexpressed complex.

Numbering of substitutions follows the chain as printed.

Consider `CCCCCCCC/C=C\CCCCCCCC(=O)OC[C@H](COP(=O)(O)OC[C@H](Nc1ccc([N+](=O)[O-])c2nonc12)C(=O)O)OC(=O)CCCCCCC/C=C\CCCCCCCC` [NBD-PS, 1,2-dioleoyl-sn-glycero-3-phospho-L-serine-N-(7-nitro-2-1,3-benzoxadiazol-4-yl)], for which the “NBD-PS transferred after 10 s” value in experiment [1] is “Efficiency of NBD-PS transfer between liposomes by HMmm1s–Mdm12 was threefold higher”.

B1: KlMdm12 (residues 1–239 of K. lactis Mdm12), nontagged (domain or fragment, Kluyveromyces lactis, UniProt Q6CUC3 1-239, looked up)
chain: T1 sequence (Q6CUC3 1-239)
Regarding B1, the binding result in experiment [2], in experiment [3] and in experiment [4] was “binds” throughout.
